In the DeepSol protein solubility set:

Assay: soluble on expression in E. coli; label from the status in PepcDB or PDB records

Sequence	soluble on expression in E. coli
MKAKLKQLRRLVESSFPEIENFHEKVDASFEKLENAKSFWSEIYVAHLKVVGDGVKVPESVFIKVPRISENVLRCEDESAVNHLNDVLLYYSKKENLFYKHFEYGSIPNFPFPKVYFTEDINGEATGGIVAENLSEKVFAVEHIPGLKHEQILRLMEALAGLHSFLMKRDDKSYVESFVEGAHGRETFSEGMQNMMFEEALTLENVSPEVFGNDRIRNIKWSFDYSIKNKATADAISAFPGIICHADLNVTNVLWKKDSAKDEISAIIDYQMLFIGSIAFDIIRVLTLGLNREIRRKMTQNYLDHYHKTLTELSNGKAPFSMEELLHQYSLIYPFSSNFSLFGIALYIKMYSDGTLGNPEDKEENCKELIDRALGIVEDIEALKNNYK	not soluble
MGSDKIHHHHHHMAKSKSTYSCTECGGQTLKWQGQCPHCQAWNTLVEAMSEKAAARFTPVSESREVQSLSEVEAEEEQRYSTGLLEFDRVLGGGLVQGGVVLLGGDPGIGKSTLLLQALCNMSLLPLARNVLYVSGEESARQVAMRAKRMGVDAKALHLLAEIRLERIQEVLAERKPDVAVIDSIQTVYSDALQSAPGSVAQVRECAAQLTRLAKASGTGMILVGHVTKEGALAGPRVLEHMVDTVLYFEGDTHSSFRLIRAFKNRFGAVNELGVFAMTEKGLREVSNPSALFLSHHGGQVPGSCIMVTQEGTRPLLVEIQALVDEAHSPNARRLSVGLEQNRLAMLLAVLHRHAGIACFDQDVFVNAVGGVKITEPGADLAVLLAIVSSLKNRPLPEKTVVFGEVGLAGEVRPVQRGLERLREAAKLGFVQAIVPKANKPKATPPGIEIIAVERVEEAVARMR	not soluble
MSPPSTIAYVLPPGFKFVPNDEEVIHCYLKPYSDGNTNVLLHVPIHLVNIYESNPQTLSEEFQKGNDKEWFIITERNKVDQGLSQTKRVGYGAKRQKRVDTNGGYWHATVAAQKINAGDGVVRNKRPLAYYVGKPSEGVKTDWLMQEYSLDHSSHNNDKDYTLCKIYLTPQATKMNKEVGEEKKKQKKGEAVVSVAPVEALEEQLPCNVEYHQPLAPLDSCQPQPHDLAYQQQQFCPGPLDSYQPQPHDMENQQPHNEKLKKEEDVEQLDLHQPDQGKGC	not soluble
MGSDKIHHHHHHMIIAVSGKGGVGKTAFTTLLIKALSKKTNSILVVDADPDSNLPETLGVEVEKTVGDIREELKKLVERDEIPAGMTKLDYLRSKIFEILVETKYYDLLVMGRPEGSGCYCSVNNWLRQIIDNLAKDYEFVVIDTEAGLEHLSRRTTQNVDVMIVITDASKRGLGTAKRIKKLANELEVKFKDIYVVANKVKPEYEELIDNYAKELGLNLIGKLPYNKEIAEYDLKGIPLWNLPENNEVYKKVEEIAEKIINKKF	not soluble
HQYSDLTINPSLGPASPTSFDDLATYRFEQWVNNLDITRAFDGLFGVPLQVSAGLEHRWERFRTFSGDAQAYQVGGYRFPASLPNGQASPLAGQLASIAAQAAAVISPQDATRLQRNNYAAYVDFGITPIEPLFVDLALRAEHFDDDSGNTVSAKLNSRYEFTDTFAVRGTVGTGFRAPSLTQTGYSISDNRVGAAPDGTIVPAVTRIAPVNSALAQALGATTLDPEKSRNLGVGVTWQPAPRTSLTADAYWIEIADRIARTESLYGPALAPTLTAQGVDTSTWTSYYANAFDTRTRGLDIVLD	not soluble
MGSDKIHHHHHHMRVLPFLLPLIPVLLATTITDLPELVVVTVATENTDGLKRLLESAKAFDINIEVLGLGEKWNGGDTRIEQGGGQKIRILSDWIEKYKDASDTMIMFVDAYDVVFNADSTTILRKFFEHYSEKRLLFGAEPFCWPDQSLAPEYPIVEFGKRFLNSGLFMGYGPEMHKILKLKSVEDKDDDQLYYTMIYLDEKLRKELNMDLDSMSKIFQNLNGVIEDVELQFKEDGTPEAYNAAYNTKPLIVHGNGPSKSHLNYLGNYLGNRWNSQLGCRTCGLEVKESEEVPLIALNLFISKPIPFIEEVLQKIAEFDYPKEKIALYIYNNQPFSIKNIQDFLQKHGKSYYTKRVINGVTEIGDREARNEAIEWNKARNVEFAFLMDGDAYFSEPKVIKDLIQYSKTYDVGIIAPMIGQPGKLFTNFWGAIAANGYYARSEDYMAIVKGNRVGYWNVPFITSAVLFNKEKLEAMKDAYSYNKNLDPDMSMCKFARDNGHFLYIDNEKYYGFLIVSDEYAETVTEGKWHPEMWQIFENRELWEARYIHPGYHKIMEPEHVVDQACPDVYDFPLMSERFCEELIEEMEGFGRWSDGSNNDKRLAGGYENVPTRDIHMNQVGFERQWLYFMDTYVRPVQEKTFIGYYHQPVESNMMFVVRYKPEEQPSLRPHHDASTFSIDIALNKKGRDYEGGGVRYIRYNCTVPADEVGYAMMFPGRLTHLHEGLATTKGTRYIMVSFINP	not soluble
MGSDKIHHHHHHLIKNILIMAANGQISRLIENQILNDDQFANVHLTLFLRHQSRLAQLAKNPRVTLIEGSLDRLDDVKKAMVDQDLVFIGVVDHSKGSQQTQNVIAGMKAGHVQRVIYTNVLGIYDEVPGTFGKWNKATIGNGLPSALKSDQLLEQSGLDYTTLRLPWLNDRDVKYQLTHKDETYVGVSGSRKSVADVVLKIIADPDYLKNDSVGIADPDTAGSDRLVY	not soluble
MGSDKIHHHHHHMSQKIAYQRLEDILKKGSRIALYARYSTGKQDENAQIHSVRNFLSDYGCELLDDNIYIDPKTSAVKVPMDQRKDLQRLIKDSKENKFDCIVSYKNDRIARNTQEHNELRTEMQRLGMPVVLSSTREIYTVGEIVPLTIKDALTQIEPLLIAERTRDTFSSKIENGEWTGGQAPYGYIYDKETELFEITDKKVEVVQEIFRLFKLGYGLQQIANKLIADRRDIGQKWYKDKIKYIITNPFYAGHMTMNRYVKGKLQLKMETWTWSKKQESIPAIMSRDEWEYCFYLYVERRKSQTVRKSSTPFWLRDILHCNECQLPFKTKNQKTKSKRKNGEKVEYGKILYECRNCGLKLETEKIHDKFKEDVGRVLKKLLEKHRENLIQQTQLQIEKEHEEITNVQKELANKRIKLIENIDVLDKKISQLYKDITTGKGLKANHTEDVLGKEDEQDDWNSKLVEILLTGRSQKHNDLEEIKQQQQLLEDKQESLNIVMNALKNQYQDELLNFSFDPENEKSMRNFLLQFVKAVYVSRDMRLDYKIYENLISE	not soluble
MVLFTGKTVEEAIETGLQELGLSRLKAHIKVISKEKKGFLGFGKKPAQVDIEGISDKTVYKADKKATRGVPEDINRQNTPAVNSADVEPEEIKATQRLEAEDTKVVPLMSEDSPAQTPSNLAETVTETKAQQPSIPVEESEVPQDAGNDGFSKDIEKAAQEVSDYVTKIIYEMDIEATVETSNNRRQINLQIETPEAGRVIGYHGKVLKSLQLLAQNFLHDRYSKNFSVSLNVHDYVEHRTETLIDFTQKVAKRVLESGQDYTMDPMSNSERKIVHKTVSSIEGVDSYSEGNDPNRYVVVSLQR	not soluble
MSKYNAKKVEYKGIVFDSKVECEYYQYLESNMNGTNYDHIEIQPKFELLPKLDKQRKIEYIADFALYLDDKLIEVIDIKGMPTEVAKLKAKIFRHKYRNIKLNWICKAPKYTGKTWITYEELIKARRERKREMK	not soluble
MTRTYAMVGTPCQITAATLMDRYTEDFPVELKLGLFCMENFSYTYLKKLAEEEGIDLADVSELRIEKGRLWFHLNDGSKVSVSLERARAAMRKNCSVCMDFTSEQSDISIGSVGSPEGWSTIIIRTERGHELIEKARKAGYIETKPLTERGIRILEKLASGKKEDNLQEIKRRESVARPVLYWRVMPDEEYLEEVTDYQFDDLRSDVIDVGACVLCGACVASCPEDIVSIKDRKPEVEGTCPEGCNACYVACPRTYVPDSIIGHDSAITPLGEYIEILSARAPMFRGQDGGVVTALLTYALREGIIDGALVVDRDQERPWKPLPVLAEEPQDIVKAAGTKYSACPLLKVLKELEHHHHHH	soluble
MRKLVVGITIASLMGCSMGHRDPVEVKQALNESINQANSRALEEIPSSVEADLMPNLDSNVSSDNGTSKRFRIQANAVEARSFFASLVKGTEYSVAIHPAVQGNITVNLSDVTLDEVLSVVQNMYGYDVMKSGKVIQVYPAGMRTVTIPVDYLQFKRSGRSLTSIVTGSVTSAGTSNSGGSSDSSDSSDSNNSNNGNDSSTTSTGGTRIETITESDFWPMLQQAVANLIGSGKGQSVVVTPQAGVITVRAFPDDIREVREFLGVSQERMQRQVILEAKILEVTLSDGYQQGINWSNLSASIGNSGSIIVNRPASALPPLDAIGTLLGGQTNVTISDGNFEAVLNFMSTQGDLNVLSSPRITAANNQKSVIKVGTDQYFVTELSSNAGNGENSNAVPEVELTPFFSGISLDVTPQIDNKGNVFLHVHPAVIEVTEEVKQLNLGGDFQNIQLPLAKSSIRESDSVIRAKDGDVVVIGGLMKQQNVEQVSKVPFLGDVPALGHLFRNTSNVTQKTELVILLKPTVVGVNSWQKELERSRDLLQEWFPDAQLEHHHHHH	not soluble
MGSDKIHHHHHHMTKSLITGANGFVGSAVTRCLLEAGHEVRCLVRPGSDRRNLDKLPVEISEGDLRSASSLKRAVAGCDNLFHVAADYRLWVPNPDTMYEINVKGTRALVLAAAEAGMKRMVYTSSVATLGTAENGVPADEDTPSSLGSMCGHYKRSKFMAEEIVQQMTREHDLPMVIVNPSTPIGPRDIKPTPTGRLVVDTLRNRMPAYVNTGLNIVHADDIAEGHLLAYKHGKPGERYILGGENMTLLQILQKIDEIRGRRIRRLGLPVKLMVPAAWLMEKMSTVTKVEPRATVDSVSMAKKKMFYSSDKAVRELGYRYRPAAAALEDAMNWFQANGYCG	not soluble
REQGFMFKKELGIESMEDLIEKIRYYKIINRNKGSGTRILFDKFLKENDIDKNSINGYDIEAKTHSAVGAAVSMGKAQIGLGISTISDHYDLEFIPIADENYDLLIPKEKLYDEDIIKFIETLKNEELPFKKSKDTGKIIYGC	not soluble
MCDSHQKEEDNANTSERALFFNYHEFSYSFYEDLGSEDAKPTEHDEDHKLCITHFPNVYAARGSAEFQVTRVVRVPRRFDESRSSLETPQFSTQLPGSEPAAIVGDDGTSFVRCGRYDIGDHVFGCSSVSPLSEYLSAAELAEVVHRVNGFLLREEGEVFGWRNLSGLLLDMLTGGLWSWVLGPLLSRPVFQESLALEQYVAQLNSPGGLLHERGVRLVLPRRSGCLSLDFVVPRPK	not soluble
MGSDKIHHHHHHMSGLCAKCVDGCTGGCETWLASFRGREVLYPGPFGDITAGAVKDYPVDYSHLNILGYARGAEGLPEGVEPGPDTAIFTNVDTTTEYGWDIKVKMKVPIFTGALGSTEIARKNWDHIAVGAAISGITVVCGENVAGVDPDLELDSNGKVKKSPELDRRIEIYKRYHDGEYGEILIQMNVEDTRLGVAEYVINKHGIETIELKWGQGAKSIGGEIKVRSLERALELKRRGYIVLPDPELPEVQRAFKEGEIKEFERHSRLGFVSKESFLKEVERLRKLGFKRITLKTGAYSAVELAMALRYGAEAKVDLITVDGAPGGTGMSPWPMMNEWGIPTFYLEALTYQFAEKLSRRGIRVPDIAIAGGFSTEDGVLKAIAMGSPYVKAVCMGRALMIPAMVGKNIGEWLKSGNLPKTVSKYGTTVEEIFVTYEELRSRFGEEEVKKLPLGAIGVYTFVQKFKTGLQQLMAGARKFRLSALSRKDLIALTKDAAEISGIPYVMESYRDEAERILEE	not soluble
MGSDKIHHHHHHMYVTSQIHAKGSDLAKLMQIAALKGNEEVLDVATGGGHVANAFAPFVKKVVAFDLTEDILKVARAFIEGNGHQQVEYVQGDAEQMPFTDERFHIVTCRIAAHHFPNPASFVSEAYRVLKKGGQLLLVDNSAPENDAFDVFYNYVEKERDYSHHRAWKKSDWLKMLEEAGFELEELHCFHKTFIFEDWCDRMNVTTEKKQELSDFIKSKPTEYYQKFKIVVEDGRVYSFRGESILMKARKPTVKNKGSS	soluble
